Assay results reported in patent US11045520B2, “Compositions and methods for topical delivery of pharmaceutical agents” (priority 2016, dated 2021).

Columns and labels:
[1] = tested on: skin epidermis and dermis; test: Removal of S.C. by various methods and possible damage (FIG. 12)
Source text: FIGS. 12A (panel a-d) and 12B depict removal of S.C. by various methods and possible damage. […] Even more damage to the dermis and epidermis are seen in skin treated by dermabrasion (panel d). In FIG. 12A, single headed arrow points to the epidermis and double headed arrows show clefting between epidermis and dermis.
Fractional laser treatment lead to unavoidable heat damage on the side of the holds that each radiated beam made.

[2] = tested on: human skin explants or xenograted human skin; test: Confocal imaging of fluorescent dye distribution in ETA-desquamated skin (Example 2); conditions: for skin permeability after removal of S.C. by ETA: ETA 100 μg/mL treated vs untreated skin
Protocol: Human skin samples were fixed in 10% formaldehyde overnight and then embedded in paraffin. Samples were cut using a microtome to a thickness of 6 μM and baked on slides for 1 hour in a dry heat incubator at 58° C. Nuclei and eosinophillic structures were visualized by hematoxylin and eosin staining, respectively. The hematoxylin stains nuclei blue and eosins stains eosinophillic structures different shades of red. Histological images were taken with an inverted microscope.
The skin was either subjected to no treatment or application of ETA at 100 μg/mL.
To image the distribution of each dye in the human skin, human skin specimens were collected at 6, 12, 18 and 24 hours. Ordinary skin with intact S.C. and desquamated skin using ETA (methods previously described) were used. Frozen sections of human skin specimens were cut using a microtome to a thickness of 7 μM and DAPI was used for counter staining. Skin imaging was carried out at room temperature using Nikon confocal microscope equipped with NIS-Elements AR 3.10 software.

human skin = test: Franz cell diffusion apparatus assay, ETA-treated vs control skin (Example 3); format: in vitro ADME; conditions: ETA-treated human skin compared to non-treated control, 24 hours
Protocol: Permeation experiments with Franz diffusion cells were performed using human skin. The Franz diffusion cells were made of glass with a contact area of 1.35 cm^2, consisting of a donor compartment and a receptor compartment. The skin was mounted between the cell compartments and 2 O-ring shaped glasses were used to position the skin epidermis side-up and dermis side-down. The two cell compartments were held together with a clamp. […] It was kept at 37° C. on a heated plate. After 30 minutes of equilibration of the skin with the receptor solution, 200 μl of the drug solution was applied in the donor compartment with a pipet. The donor compartment was then covered with parafilm to prevent evaporation of the solvent. The receptor solution was continuously stirred using a spinning bar magnet at 200 rpm. Receptor solution samples, 0.2 ml aliquots, were withdrawn through the sampling port of the receptor compartment at various time intervals. The cells were refilled with a same amount of receptor solution to keep the volume of receptor solution constant during the experiment. The experiments were run for 24 hours. The fluorescent intensities collected from receptor compartments from normal and desquamated skin were compared over time using a spectrophotometer. […]

human skin explants [3] = conditions: cited from earlier work
[4] = tested on: Stratum Corneum of human skin explants; test: ETA desquamation of Stratum Corneum on human skin explants, H&E histology (Example 1)
Protocol: ETA was mixed with 10 mM PIPES at pH 6.5, 10 mM HEPES at pH 7.4, or 10 mM Tris at pH 8.0, at concentrations ranging from 25-1000 μg/mL. Each condition was also done separately as controls. These solutions were applied to human skin explants, obtained and prepared as follows. Human skin specimens were obtained from consenting patients undergoing abdominoplasty. Under a sterile condition, the tissue was placed and washed in a 70% ethanol solution and cold PBS. Fat layers were removed from the tissue, leaving a millimeter of dermis and an intact epidermis. The tissue was then cut into 10 mm×10 mm pieces and placed on gels composed of keratinocyte media supplemented with Human Keratinocyte Growth Supplement purchased from Invitrogen, and mixed in a 1:1 ratio with 2% agarose. The samples were stored at 37° C. in 5% CO2.
ETA solutions were incubated on top of the skin for 4 hours. Each buffer condition was also done separately without the presence of ETA as controls. […] That is to say, Stratum Corneum layer was peeled off mechanically with sterile gauze.
Histological images were taken with an inverted microscope.

[5] = tested on: xenograft human skin in SCID mice; test: Recovery of S.C. after ETA, serial confocal DAPI staining; format: in vivo
Source text: FIG. 11 panels a-i depict DAPI staining on nuclei in an S.C. removed area compared to control (intact S.C.), highlighting the recovery of the S.C. layer over time after the application of ETA on human xenografted skin on mice. […] Day 7-9 and 10-11 (panels e, f) show even less nuclei.
Regarding healing kinetics, using a xenograft human skin in SCID mice model, the healing of removed S.C. was completed within 2 weeks as determined by serial confocal observation of DAPI staining on xenograft skin. With confocal microscope and DAPI staining, the recovery of the S.C. can be observed, as described. DAPI is known to be a fluorescent stain that can pass through the cell membrane and bind strongly to A-T rich regions in DNA, thereby staining the nuclei of cells. With intact S.C., the signal from DAPI cannot be detected by confocal microscope due to the refraction of light against the S.C. as well as the limitation of the depth of light penetration. On the other hand, desquamated skin can produce DAPI signals within cells. DAPI can stain the nuclei of epidermis as long as epidermis remains desquamated. Under inhalation anesthesia, xenografted mouse was taped down on the observatory plates and the xenografted skin was imaged using confocal microscopy. DAPI signal was obtained at baseline and every other day after ETA-mediated desquamation occurred.

human skin explants [6] = test: Injected versus topically applied ETA, damage after 24 hours (Example 6)
Protocol: FIG. 10 panels a-h depict the effect of injected and topically applied ETA in a series of concentrations between 5 and 1000 ug/mL after 24 hours.
Damage caused by intra-dermal injection of ETA was compared to normal control skin and topically applied ETA control. A very high concentration of ETA (500 μg/mL) was intra-dermally injected into human skin explants (prepared as described in Example 1) and observed after 24 hours. […] In contrast, methods of the invention topically apply ETA only to the outside surface of skin.

[7] = tested on: Stratum Corneum, human skin explant model; test: ETA desquamation after acetone and/or thioglycolate cream pre-treatment (Example 4)
Source text: FIG. 7 panels a-d depict decreased desquamation time for the removal of S.C. by ETA on the human skin specimen(s) following thioglycolate cream pre-treatment. Samples either received no treatment (panel a), ETA only (panel b), treated with thioglycolate cream only (panel c), ETA and thioglycolate cream (panel d). The depictions are of live confocal imaging of skin. Images are focusing on the horizontal plane at the most superficial levels. Lighter areas depict areas where DAPI dye has entered the epidermis and staining on the Nuclei of the cells. […] Natural folds in skin surface produce “waves” of staining in these planar-focused live images. The waves of staining are seen in panel b, with about 20%-30% of the area stained, and about 90%-95% of the area stained in panel d (“unstained” regions in panel d are skin folds). However when S.C. is present (panels a and c), DAPI cannot penetrate cells, and is shielded from cellular uptake by the S.C., staining is seen to be less than about 10% in panels a and c.
In order to decrease the incubation time of ETA, the following conditions were additionally evaluated:
Studies were carried out in a human skin explant model using surgical abdominal skin specimens.
Lipid Extraction: The S.C. layer consists of lipids and therefore, acetone was selected as a pre-treatment to dissolve or at least disrupt the lipid structure of the S.C.
Protein Denaturation: The S.C. layer also contains keratin proteins. Keratins can be broken down by thioglycolate, which breaks down rigid disulfide bonds. Samples were pre-treated with thioglycolate cream to break down the keratin layer of the S.C. As a result, the incubation time of ETA was shortened (FIG. 7).
Combination Lipid Extraction and Protein Denaturation: With the pre-treatment of acetone and a thioglycolate cream, separation of S.C. started as early as 2 to 2.5 hours.

[8] = intra-dermally injected, ETA 500 μg/mL, 24 hours

O=C(O)CO [glycololic acid, glycolic acid]
epidermal or dermal injury ([1]; 20% for 1-3 minutes): epidermal damage and clefting of the dermal-epidermal junction (DEJ)
injury by chemical peeling [1]: uncontrolled or unavoidable additional injury to epidermis

O=C(O)c1ccccc1O [salicylic acid]
injury by chemical peeling [1]: uncontrolled or unavoidable additional injury to epidermis
epidermal or dermal injury ([1]; topical 30%): damage to the epidermis

CCNc1cc2[s+]c3cc(N(CC)CC)ccc3nc2c2ccccc12.[Cl-] [EtNBS]
skin permeability after removal of S.C. by ETA [2]: substantially increased
penetration of the dye at 12 hours ([2]; toxin treated skin): penetrating past the epidermis
penetration of the dye at 24 hours ([2]; toxin treated skin): penetrated further

human recombinant insulin: FITC tagged human recombinant insulin (5000 Da)
skin permeability after removal of S.C. by ETA [2]: substantially increased
time to penetration of the dye ([2]; toxin treated skin): ≤ 6 h
penetration of the dye at 12 hours ([2]; toxin treated skin): some dye penetration
penetration of the dye at 24 hours ([2]; toxin treated skin): extensively into the dermis
penetration of the dye at 24 hours ([2]; toxin treated skin, listed as FITC-insulin): deep penetration of the dye

CCN(CC)c1ccc2c(-c3ccc(S(=O)(=O)O)cc3S(=O)(=O)[O-])c3ccc(=[N+](CC)CC)cc-3oc2c1 [Sulforhodamine, sulforhodamine B]
skin permeability, fluorescence in receptor compartment (human skin): increase in skin permeability

O=C1OC2(c3ccc(O)cc3Oc3cc(O)ccc32)c2ccccc21 [fluorescein]
skin permeability, fluorescence in receptor compartment (human skin): increase in skin permeability

C=C[C@@]1(C)CC(=O)[C@]2(O)[C@@]3(C)[C@@H](O)CCC(C)(C)[C@@H]3[C@H](O)[C@H](OC(C)=O)[C@@]2(C)O1 [Forskolin]
penetration of intact human skin (human skin explants [3]): cannot, however, penetrate intact human skin

B1: ETA: protease that cleaves the extracellular portion of desmoglein-1 (Dsg1); Staphylococcus aureus, SEQ ID NO: 01/02 (protein, listed as Staphylococcus aureus)
chain: MNNSKIISKVLLSLSLFTVGASAFVIQDELMQKNHAKAEVSAEEIKKHEEKWNKYYGVNAFNLPKELFSKVDEKDRQKYPYNTIGNVFVKGQTSATGVLIGKNTVLTNRHIAKFANGDPSKVSFRPSINTDDNGNTETPYGEYEVKEILQEPFGAGVDLALIRLKPDQNGVSLGDKISPAKIGTSNDLKDGDKLELIGYPFDHKVNQMHRSEIELTTLSRGLRYYGFTSVPGNSGSGIFNSNGELVGIHSSKVSHLDREHQINYGVGIGNY
effect of buffer on desquamation speed ([4]; 10 mM Tris buffer pH 8.0): no effect
time to remove the S.C. ([4]; ETA 50 μg/mL): ≤ 12 h
S.C. removal, histology (FIG. 1 panel d) ([4]; ETA 50 μg/mL, serial time points up to 12 hours): sub-corneal cleavage and the complete removal of the S.C.
incubation time at which efficacy was achieved ([4]; ETA 1000 μg/mL, buffered pH 6.5 solution): about 3 hours
time to desquamation of the Stratum Corneum ([4]; ETA between 5 and 25 μg/mL, topical): ≤ 24 h
damage to the rest of the epidermis or the dermis ([4]; ETA between 5 and 25 μg/mL, within 24 hours): without damaging the rest of the epidermis or the dermis
time to completely remove the S.C. ([4]; pH 6.5): 4 h
desquamation (FIG. 2 panel d) ([4]; pH 6.5 PIPES buffer, 4 hours): total desquamation
desquamation (FIG. 2 panel b) ([4]; pH 7.4 HEPES buffer, 4 hours): some desquamation
DAPI staining of nuclei ([5]; Day 12 after ETA): no nuclei
DAPI staining of nuclei ([5]; Days 1-3 after ETA): significant DAPI staining
time to completed healing of removed S.C. ([5]; after ETA-mediated desquamation): ≤ 2 weeks
re-formation of intact Stratum Corneum complete ([5]; after application of ETA): ≤ 15 days
epidermal or dermal injury ([1]; controlled removal of S.C. using ETA): no epidermal or dermal injury
damage to the epidermis or underlying dermis (human skin explants [6]; [8]): no serious damage
exfoliation (human skin explants [6]; [8]): more wide spread exfoliation
histological effect (human skin explants [6]; intradermal injection, ETA 5 μg/mL, 24 hours): desquamation
histological effect (human skin explants [6]; intradermal injection, ETA 50 μg/mL, 24 hours): desquamation
histological effect (human skin explants [6]; intradermal injection, ETA 500 μg/mL, 24 hours): clefting at the dermal-epidermal junction (DEJ)
histological effect (human skin explants [6]; intradermal injection, ETA 1000 μg/mL, 24 hours): clefting at the dermal-epidermal junction (DEJ)
effect compared with intra-dermal injection (human skin explants [6]; topical ETA 50 μg/mL for 24 hours): much more modest effect
histological effect (human skin explants [6]; topical application, ETA 5 μg/mL, 24 hours): no change
histological effect (human skin explants [6]; topical application, ETA 50 μg/mL, 24 hours): desquamation
histological effect (human skin explants [6]; topical application, ETA 500 μg/mL, 24 hours): desquamation
histological effect (human skin explants [6]; topical application, ETA 1000 μg/mL, 24 hours): desquamation
incubation usually expected ([7]; ETA 50 μg/mL, without pre-treatment): 4 to 8 h
area stained by DAPI (FIG. 7 panel d) ([7]; ETA and thioglycolate cream): 90%-95%
area stained by DAPI (FIG. 7 panel b) ([7]; ETA only): 20%-30%
change of reaction time after ETA application ([7]; acetone pre-treatment): slight decrease in reaction time
time at which separation of S.C. started ([7]; pre-treatment of acetone and a thioglycolate cream): 2 to 2.5 h
time of almost complete removal of S.C. ([7]; pre-treatment of acetone and a thioglycolate cream, ETA 50 μg/mL): 3 h
change of incubation time of ETA ([7]; thioglycolate cream pre-treatment): shortened
